The record followed here is IntAct's records for PubMed 16247757.

The labels stand for the following.
B1: Lamina-associated polypeptide 2, isoform alpha (Homo sapiens), P42166 (parent)
chain: MPEFLEDPSVLTKDKLKSELVANNVTLPAGEQRKDVYVQLYLQHLTARNRPPLPAGTNSKGPPDFSSDEEREPTPVLGSGAAAAGRSRAAVGRKATKKTDKPRQEDKDDLDVTELTNEDLLDQLVKYGVNPGPIVGTTRKLYEKKLLKLREQGTESRSSTPLPTISSSAENTRQNGSNDSDRYSDNEEGKKKEHKKVKSTRDIVPFSELGTTPSGGGFFQGISFPEISTRPPLGSTELQAAKKVHTSKGDLPREPLVATNLPGRGQLQKLASERNLFISCKSSHDRCLEKSSSSSSQPEHSAMLVSTAASPSLIKETTTGYYKDIVENICGREKSGIQPLCPERSHISDQSPLSSKRKALEESESSQLISPPLAQAIRDYVNSLLVQGGVGSLPGTSNSMPPLDVENIQKRIDQSKFQETEFLSPPRKVPRLSEKSVEERDSGSFVAFQNIPGSELMSSFAKTVVSHSLTTLGLEVAKQSQHDKIDASELSFPFHESILKVIEEEWQQVDRQLPSLACKYPVSSREATQILSVPKVDDEILGFISEATPLGGIQAASTESCNQQLDLALCRAYEAAASALQIATHTAFVAKAMQADISQAAQILSSDPSRTHQALGILSKTYDAASYICEAAFDEVKMAAHTMGNATVGRRYLWLKDCKINLASKNKLASTPFKGGTLFGGEVCKVIKKRGNKH

Variants of B1 are the subject of this assay. The conditions noted are these: with lmna_human LMNA.
With R690C, the “effect of a mutation on the interaction” value is given as “decreasing interaction”.
